Experimental data reported in the supplement of paper PMC10126150.
± gives the standard deviation of the averaged measurements.

Test system: ATP
Test: switch fluorescence ratio, 500 uM ATP over buffer (Cy3 cluster intensity, sum of 5 cycles each) (fold (ratio)); higher = stronger signal-on switching upon ATP binding; sequences stand for … in TCGTCGGCAGCGTCAGATGTGTATAAGAGACAGTTTTTTTTTTTTTTTTTTTTTTTTT…TC
Conditions: aptamer strand: ATP DNA aptamer (quencher-CACCTGGGGGAGTATTGCGGAGGAAGG + anchor), 100 nM annealed; ATP concentration: 500 uM
Method in brief: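 Imaging in selection buffer was followed by imaging after 15 min with 500 uM ATP at 22 °C, for Cy3-labelled switching-strand clusters annealed to 100 nM quencher-labelled ATP aptamer on a modified Illumina MiSeq flow-cell. Five of these buffer/ATP cycles ran, separated by NaOH stripping and re-annealing. The fluorescence ratio per cluster is summed target-cycle over summed buffer-cycle Cy3 intensity, averaged per switch-domain sequence; clusters outside 100-1000 RFU were removed.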
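Also: ATP exposure 15 min at 22 °C before imaging.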

With GGTGGTTTGG the switch fluorescence ratio was 1.023 ± 0.0045.
Sequence GGTGGTTTTG has a switch fluorescence ratio of 0.985 ± 0.037.
GGTGTAATGG gave a switch fluorescence ratio of 1.04 ± 0.04.
GGTGTAGAGG showed a switch fluorescence ratio of 1.012 ± 0.0022.
For GGTGTAGCTA, the switch fluorescence ratio was 0.981 ± 0.061.
GGTGTAGCTT gave a switch fluorescence ratio of 1.014 ± 0.0083.
Sequence GGTGTAGGT has a switch fluorescence ratio of 0.986 ± 0.022.
GGTGTATGGT was tested, and the switch fluorescence ratio was 0.985 ± 0.018.
In the case of GGTGTGGCTC, the switch fluorescence ratio is reported as 1 ± 0.044.
GGTGTGTGGG was tested, and the switch fluorescence ratio was 1.01 ± 0.033.
With GGTGTTAAGA the switch fluorescence ratio was 1.01 ± 0.0043.
GGTGTTAGGC showed a switch fluorescence ratio of 1.01 ± 0.032.
For GGTGTTATGC, the switch fluorescence ratio was 1.01 ± 0.015.
GGTGTTCATG showed a switch fluorescence ratio of 0.974 ± 0.024.
With GGTGTTCTGT the switch fluorescence ratio was 0.9665 ± 0.0089.
Work on GGTGTTGCAA yielded a switch fluorescence ratio of 1.02 ± 0.016.
With GGTGTTGTGG the switch fluorescence ratio was 0.9911 ± 0.0093.
With GGTGTTGTTC the switch fluorescence ratio was 1.01 ± 0.014.
With GGTGTTTAAT the switch fluorescence ratio was 0.979 ± 0.016.
GGTGTTTGGA showed a switch fluorescence ratio of 0.986 ± 0.0099.
For GGTGTTTGTA, the switch fluorescence ratio was 1.005 ± 0.0094.
Work on GGTGTTTTAT yielded a switch fluorescence ratio of 1.02 ± 0.015.
GGTGTTTTCA showed a switch fluorescence ratio of 0.988 ± 0.026.
GGTGTTTTG showed a switch fluorescence ratio of 0.9847 ± 0.007.
GGTTAAAAGG showed a switch fluorescence ratio of 1 ± 0.032.
GGTTAAACTT showed a switch fluorescence ratio of 1.02 ± 0.012.
With GGTTAAATTA the switch fluorescence ratio was 1.01 ± 0.013.
GGTTAACGTC was tested, and the switch fluorescence ratio was 1.03 ± 0.15.
Sequence GGTTAAGCCG has a switch fluorescence ratio of 0.996 ± 0.017.
GGTTAAGCCT was tested, and the switch fluorescence ratio was 1.05 ± 0.043.
For GGTTAAGTCT, the switch fluorescence ratio was 0.946 ± 0.053.
In the case of GGTTAATCGT, the switch fluorescence ratio is reported as 0.98228 ± 0.00062.
With GGTTACGTAG the switch fluorescence ratio was 1.045 ± 0.0078.
For GGTTACTGTT, the switch fluorescence ratio was 1.08 ± 0.096.
GGTTACTTTA was tested, and the switch fluorescence ratio was 1.07 ± 0.064.
Sequence GGTTAGAAGG has a switch fluorescence ratio of 0.96 ± 0.031.
GGTTAGATAG gave a switch fluorescence ratio of 1.01 ± 0.035.
Work on GGTTAGGGGC yielded a switch fluorescence ratio of 0.995 ± 0.04.
Work on GGTTAGTAGG yielded a switch fluorescence ratio of 0.986 ± 0.021.
GGTTAGTATT showed a switch fluorescence ratio of 0.987 ± 0.021.
Sequence GGTTAGTGTC has a switch fluorescence ratio of 1.05 ± 0.047.
Work on GGTTAGTGTG yielded a switch fluorescence ratio of 0.997 ± 0.015.
With GGTTATAGCT the switch fluorescence ratio was 1.02 ± 0.034.
GGTTATCCGG gave a switch fluorescence ratio of 1.01 ± 0.032.
With GGTTATCGAT the switch fluorescence ratio was 0.999 ± 0.0014.
With GGTTATGCTG the switch fluorescence ratio was 1.03 ± 0.1.
Sequence GGTTATGGGG has a switch fluorescence ratio of 0.985 ± 0.027.
For GGTTCAAGGG, the switch fluorescence ratio was 0.984 ± 0.02.
Sequence GGTTCAGGTA has a switch fluorescence ratio of 0.9876 ± 0.0062.
With GGTTCAGTG the switch fluorescence ratio was 0.9936 ± 0.0079.
For GGTTCCTTA, the switch fluorescence ratio was 0.994 ± 0.045.
GGTTCGGGAA showed a switch fluorescence ratio of 0.9965 ± 0.0022.
With GGTTCGGGGG the switch fluorescence ratio was 0.997 ± 0.037.
GGTTCGGTTC showed a switch fluorescence ratio of 1.02 ± 0.017.
With GGTTCGTATA the switch fluorescence ratio was 1.01 ± 0.017.
GGTTCGTTGG was tested, and the switch fluorescence ratio was 0.993 ± 0.013.
GGTTCTAAGA gave a switch fluorescence ratio of 0.98129 ± 0.00096.
GGTTCTACTC showed a switch fluorescence ratio of 1.02 ± 0.013.
For GGTTCTATGG, the switch fluorescence ratio was 0.99441 ± 3.1e-05.
GGTTCTGATC was tested, and the switch fluorescence ratio was 0.981 ± 0.01.
GGTTCTTATA gave a switch fluorescence ratio of 1.046 ± 0.008.
With GGTTGAACCG the switch fluorescence ratio was 1.01 ± 0.06.
GGTTGAAGTG was tested, and the switch fluorescence ratio was 0.974 ± 0.012.
GGTTGACGGG gave a switch fluorescence ratio of 0.985 ± 0.055.
In the case of GGTTGAGGAG, the switch fluorescence ratio is reported as 1.04 ± 0.074.
GGTTGAGTGG was tested, and the switch fluorescence ratio was 1 ± 0.036.
With GGTTGATATG the switch fluorescence ratio was 1 ± 0.041.
With GGTTGATTTA the switch fluorescence ratio was 1.036 ± 0.0037.
GGTTGCAGAG showed a switch fluorescence ratio of 1.01 ± 0.024.
GGTTGCAGGG was tested, and the switch fluorescence ratio was 1.01 ± 0.011.
GGTTGCATTA showed a switch fluorescence ratio of 0.9923 ± 0.0019.
GGTTGCGTCT showed a switch fluorescence ratio of 0.9613 ± 0.003.
GGTTGGAAAG showed a switch fluorescence ratio of 0.9919 ± 0.0013.
GGTTGGCATA was tested, and the switch fluorescence ratio was 0.984 ± 0.016.
In the case of GGTTGGCCCC, the switch fluorescence ratio is reported as 1.02 ± 0.019.
GGTTGGGTGT was tested, and the switch fluorescence ratio was 1.02 ± 0.027.
In the case of GGTTGGTATT, the switch fluorescence ratio is reported as 1.001 ± 0.0099.
GGTTGTAGTT gave a switch fluorescence ratio of 0.963 ± 0.016.
With GGTTGTATGG the switch fluorescence ratio was 0.975 ± 0.012.
GGTTGTCCTA gave a switch fluorescence ratio of 0.978 ± 0.023.
Sequence GGTTGTCTGC has a switch fluorescence ratio of 0.968 ± 0.055.
Sequence GGTTGTGGCA has a switch fluorescence ratio of 1.03 ± 0.011.
GGTTGTTACG was tested, and the switch fluorescence ratio was 0.987 ± 0.033.
In the case of GGTTGTTCCG, the switch fluorescence ratio is reported as 0.9973 ± 0.0073.
GGTTTAAGTC showed a switch fluorescence ratio of 1.06 ± 0.029.
GGTTTACAGC was tested, and the switch fluorescence ratio was 0.979 ± 0.012.
With GGTTTACGGC the switch fluorescence ratio was 1 ± 0.016.
Sequence GGTTTACTG has a switch fluorescence ratio of 1.03 ± 0.035.
In the case of GGTTTAGAGC, the switch fluorescence ratio is reported as 1.01 ± 0.02.
For GGTTTAGGCA, the switch fluorescence ratio was 0.999 ± 0.027.
Sequence GGTTTCCATT has a switch fluorescence ratio of 1 ± 0.054.
In the case of GGTTTCCCTG, the switch fluorescence ratio is reported as 0.9984 ± 0.0033.
GGTTTCCTTT gave a switch fluorescence ratio of 0.992 ± 0.021.
Work on GGTTTCGACG yielded a switch fluorescence ratio of 1.01 ± 0.011.
GGTTTCGGCG gave a switch fluorescence ratio of 0.966 ± 0.04.
Work on GGTTTCTAGG yielded a switch fluorescence ratio of 0.99311 ± 0.00018.
Work on GGTTTCTCCG yielded a switch fluorescence ratio of 1.46 ± 0.017.
With GGTTTCTGAA the switch fluorescence ratio was 0.998 ± 0.02.
GGTTTCTTCG gave a switch fluorescence ratio of 1.09 ± 0.1.
In the case of GGTTTCTTGA, the switch fluorescence ratio is reported as 1.02 ± 0.021.
